{
  "source": "paper PMC11417369",
  "about": "“DNA sequence and chromatin differentiate sequence-specific transcription factor binding in the human malaria parasite Plasmodium falciparum”",
  "binders": {"B1": {"name": "GTGCAC_site9510 (dsDNA)", "DNA 1": "TGTTTATTTATTTGTGTGCACTCAGATTATATTATA", "DNA 2": "TATAATATAATCTGAGTGCACACAAATAAATAAACA"}, "B2": {"name": "GTGCAC_site10365 (dsDNA)", "DNA 1": "TTTCAATTTATCAGTGTGCACAAAAATAAAATAAAA", "DNA 2": "TTTTATTTTATTTTTGTGCACACTGATAAATTGAAA"}, "B3": {"name": "GTGCAC_site9776 (dsDNA)", "DNA 1": "TTTATATATTTTGTCGTGCACATTTGGAAAATTACA", "DNA 2": "TGTAATTTTCCAAATGTGCACGACAAAATATATAAA"}, "B4": {"name": "GTGCAC_site10773 (dsDNA)", "DNA 1": "TATATATATATAATTGTGCACATAATTTTAAACCAA", "DNA 2": "TTGGTTTAAAATTATGTGCACAATTATATATATATA"}, "B5": {"name": "GTGCAC_negctrl_site213 (dsDNA)", "DNA 1": "TTTAATCAATGATTTAATGAAAAAAGCAAAAAAAAA", "DNA 2": "TTTTTTTTTGCTTTTTTCATTAAATCATTGATTAAA"}, "B6": {"name": "GTGCAC_negctrl_site622 (dsDNA)", "DNA 1": "TTTTGAATATATTAAATAAATTAAAAATCTACAAAC", "DNA 2": "GTTTGTAGATTTTTAATTTATTTAATATATTCAAAA"}, "B7": {"name": "GTGCAC_negctrl_site541 (dsDNA)", "DNA 1": "TCCCCCTTTTTTTGATTTTTATCTTAATTCTAAAAG", "DNA 2": "CTTTTAGAATTAAGATAAAAATCAAAAAAAGGGGGA"}, "B8": {"name": "GTGCAC_negctrl_site507 (dsDNA)", "DNA 1": "ATGTTGTTCATAAATATATTATTTTTAAATGTACAA", "DNA 2": "TTGTACATTTAAAAATAATATATTTATGAACAACAT"}, "B9": {"name": "GTGCAC_negctrl_site655 (dsDNA)", "DNA 1": "TCTTTTAACAAATAATAAGCTAATTTATATTATTAT", "DNA 2": "ATAATAATATAAATTAGCTTATTATTTGTTAAAAGA"}, "B10": {"name": "GTGCAC_negctrl_site354 (dsDNA)", "DNA 1": "ATAAATTGAAGTAAATTTGACCTTTTTTTTTTTTTT", "DNA 2": "AAAAAAAAAAAAAAGGTCAAATTTACTTCAATTTAT"}, "B11": {"name": "GTGCAC_negctrl_site465 (dsDNA)", "DNA 1": "AAAAAATGTAAATATAAACAACCAAAGGGGGTATAC", "DNA 2": "GTATACCCCCTTTGGTTGTTTATATTTACATTTTTT"}, "B12": {"name": "GTGCAC_negctrl_site640 (dsDNA)", "DNA 1": "AGAAATATGTTGAAGCATTTATAATGTAGATATAAG", "DNA 2": "CTTATATCTACATTATAAATGCTTCAACATATTTCT"}, "B13": {"name": "GTGCAC_negctrl_site486 (dsDNA)", "DNA 1": "TATTTATTATGATACTCATATTATTCTATGATTAAA", "DNA 2": "TTTAATCATAGAATAATATGAGTATCATAATAAATA"}, "B14": {"name": "GTGCAC_negctrl_site358 (dsDNA)", "DNA 1": "TACTGTATTATAATTATGATTGACGAAATTAAAAAT", "DNA 2": "ATTTTTAATTTCGTCAATCATAATTATAATACAGTA"}, "B15": {"name": "GTGCAC_negctrl_site448 (dsDNA)", "DNA 1": "TCTTTTTAAATTACTATAATACATTCATAAATTATA", "DNA 2": "TATAATTTATGAATGTATTATAGTAATTTAAAAAGA"}, "B16": {"name": "GTGCAC_negctrl_site10 (dsDNA)", "DNA 1": "TGCCATATATATATTAAATACATAATAATGAGCCTA", "DNA 2": "TAGGCTCATTATTATGTATTTAATATATATATGGCA"}, "B17": {"name": "GTGCAC_negctrl_site183 (dsDNA)", "DNA 1": "TGTATAGGTACAATAATTATAGAGTAATTGACATTA", "DNA 2": "TAATGTCAATTACTCTATAATTATTGTACCTATACA"}, "B18": {"name": "GTGCAC_negctrl_site236 (dsDNA)", "DNA 1": "TGTTAAAAGGTTAAATTAAAATAACCTCCGGAAATT", "DNA 2": "AATTTCCGGAGGTTATTTTAATTTAACCTTTTAACA"}, "B19": {"name": "GTGCAC_negctrl_site596 (dsDNA)", "DNA 1": "TTTTTTATTTTATTTTATTTTTATTTTTTTTTTTTT", "DNA 2": "AAAAAAAAAAAAATAAAAATAAAATAAAATAAAAAA"}, "B20": {"name": "GTGCAC_negctrl_site20 (dsDNA)", "DNA 1": "TAGTTCCTCAAAAATTTCCTTTGTCATTTTATTCAC", "DNA 2": "GTGAATAAAATGACAAAGGAAATTTTTGAGGAACTA"}, "B21": {"name": "GTGCAC_negctrl_site710 (dsDNA)", "DNA 1": "AATATATTTTAGAGTTTTATATATTTTATGCATATA", "DNA 2": "TATATGCATAAAATATATAAAACTCTAAAATATATT"}, "B22": {"name": "GTGCAC_negctrl_site151 (dsDNA)", "DNA 1": "TTTGTTCTATGGAGTTTAAAATGTAATATATATTAA", "DNA 2": "TTAATATATATTACATTTTAAACTCCATAGAACAAA"}, "B23": {"name": "GTGCAC_negctrl_site17 (dsDNA)", "DNA 1": "TTTTTTTTTTTTTTTTTTTTCTTCATTTAATTTATA", "DNA 2": "TATAAATTAAATGAAGAAAAAAAAAAAAAAAAAAAA"}, "B24": {"name": "GTGCAC_negctrl_site551 (dsDNA)", "DNA 1": "AAAAGGAATATAATCATTCAAAAATATAATATATAT", "DNA 2": "ATATATATTATATTTTTGAATGATTATATTCCTTTT"}, "B25": {"name": "GTGCAC_negctrl_site681 (dsDNA)", "DNA 1": "AAAGGTAAATGTAAATAAATAAATAATAAATATATA", "DNA 2": "TATATATTTATTATTTATTTATTTACATTTACCTTT"}, "B26": {"name": "GTGCAC_negctrl_site549 (dsDNA)", "DNA 1": "TTTTTTATAGTACATTACCAAAAAAAAAAAAAAAAA", "DNA 2": "TTTTTTTTTTTTTTTTTGGTAATGTACTATAAAAAA"}, "B27": {"name": "GTGCAC_negctrl_site532 (dsDNA)", "DNA 1": "AATAATTTTTAAATATAAACATTTTTTTTTTTTTTT", "DNA 2": "AAAAAAAAAAAAAAATGTTTATATTTAAAAATTATT"}, "B28": {"name": "GTGCAC_negctrl_site230 (dsDNA)", "DNA 1": "TGTTGTTATAAAAAAAAAAAAAAAAAAAAAAAAAAA", "DNA 2": "TTTTTTTTTTTTTTTTTTTTTTTTTTTATAACAACA"}, "B29": {"name": "GTGCAC_negctrl_site362 (dsDNA)", "DNA 1": "TATTATATCTTATATGTATATTCCCACAAATTATAT", "DNA 2": "ATATAATTTGTGGGAATATACATATAAGATATAATA"}, "B30": {"name": "GTGCAC_negctrl_site352 (dsDNA)", "DNA 1": "TTTTTTTTTTTTTTTTTTTTCACATGTGTGGAAAAA", "DNA 2": "TTTTTCCACACATGTGAAAAAAAAAAAAAAAAAAAA"}, "B31": {"name": "GTGCAC_negctrl_site550 (dsDNA)", "DNA 1": "AAAAAAAATAAAGAGAAAAAAAAAAGAAAATTATAT", "DNA 2": "ATATAATTTTCTTTTTTTTTTCTCTTTATTTTTTTT"}, "B32": {"name": "GTGCAC_negctrl_site275 (dsDNA)", "DNA 1": "ATATTTTATCATGTTTAATATTTATGTGGACATAAA", "DNA 2": "TTTATGTCCACATAAATATTAAACATGATAAAATAT"}},
  "data": [
    {"target": "T1, SIP2 D1 (Plasmodium falciparum, UniProt C6KSN9 177-235)", "T1 sequence": "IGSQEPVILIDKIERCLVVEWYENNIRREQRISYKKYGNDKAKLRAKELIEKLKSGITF", "assay": "gcPBM; about 25 ug protein; PBS, 1% milk, 0.2 mg/ml BSA, salmon testes DNA, 0.03% Triton X-100", "conditions": "tags: N-terminal GST (pGEX-4T-1), kept; label: surface-attached array probe", "values": [
      {"binder": "B1", "binding signal": "10.1 ln median PBM intensity, better of two orientations"},
      {"binder": "B2", "binding signal": "10.1 ln median PBM intensity, better of two orientations"},
      {"binder": "B3", "binding signal": "9.81 ln median PBM intensity, better of two orientations"},
      {"binder": "B4", "binding signal": "9.89 ln median PBM intensity, better of two orientations"}
    ]},
    {"target": "T2, HDP1 homeodomain-like (Plasmodium falciparum, UniProt Q8IKH4 2990-3078)", "T2 sequence": "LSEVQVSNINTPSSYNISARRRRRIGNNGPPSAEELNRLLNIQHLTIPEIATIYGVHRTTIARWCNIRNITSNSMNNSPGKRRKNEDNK", "assay": "gcPBM; about 25 ug protein; PBS, 1% milk, 0.2 mg/ml BSA, salmon testes DNA, 0.03% Triton X-100", "conditions": "tags: N-terminal GST (pGEX-4T-1), kept; chain copies: 2; label: surface-attached array probe", "values": [
      {"binder": "B5", "binding signal": "6.34 ln median PBM intensity, better of two orientations"},
      {"binder": "B6", "binding signal": "6.24 ln median PBM intensity, better of two orientations"},
      {"binder": "B7", "binding signal": "6.28 ln median PBM intensity, better of two orientations"},
      {"binder": "B1", "binding signal": "11.3 ln median PBM intensity, better of two orientations"},
      {"binder": "B8", "binding signal": "6.37 ln median PBM intensity, better of two orientations"},
      {"binder": "B9", "binding signal": "6.28 ln median PBM intensity, better of two orientations"},
      {"binder": "B10", "binding signal": "6.29 ln median PBM intensity, better of two orientations"},
      {"binder": "B11", "binding signal": "6.37 ln median PBM intensity, better of two orientations"},
      {"binder": "B12", "binding signal": "6.35 ln median PBM intensity, better of two orientations"},
      {"binder": "B13", "binding signal": "6.33 ln median PBM intensity, better of two orientations"},
      {"binder": "B14", "binding signal": "6.33 ln median PBM intensity, better of two orientations"},
      {"binder": "B15", "binding signal": "6.3 ln median PBM intensity, better of two orientations"},
      {"binder": "B2", "binding signal": "11.4 ln median PBM intensity, better of two orientations"},
      {"binder": "B16", "binding signal": "6.22 ln median PBM intensity, better of two orientations"},
      {"binder": "B17", "binding signal": "6.21 ln median PBM intensity, better of two orientations"},
      {"binder": "B18", "binding signal": "6.21 ln median PBM intensity, better of two orientations"},
      {"binder": "B19", "binding signal": "6.26 ln median PBM intensity, better of two orientations"},
      {"binder": "B3", "binding signal": "8.92 ln median PBM intensity, better of two orientations"},
      {"binder": "B20", "binding signal": "6.25 ln median PBM intensity, better of two orientations"},
      {"binder": "B21", "binding signal": "6.25 ln median PBM intensity, better of two orientations"},
      {"binder": "B22", "binding signal": "6.25 ln median PBM intensity, better of two orientations"},
      {"binder": "B23", "binding signal": "6.26 ln median PBM intensity, better of two orientations"},
      {"binder": "B24", "binding signal": "6.36 ln median PBM intensity, better of two orientations"},
      {"binder": "B25", "binding signal": "6.27 ln median PBM intensity, better of two orientations"},
      {"binder": "B26", "binding signal": "6.26 ln median PBM intensity, better of two orientations"},
      {"binder": "B27", "binding signal": "6.29 ln median PBM intensity, better of two orientations"},
      {"binder": "B28", "binding signal": "6.26 ln median PBM intensity, better of two orientations"},
      {"binder": "B29", "binding signal": "6.31 ln median PBM intensity, better of two orientations"},
      {"binder": "B30", "binding signal": "6.23 ln median PBM intensity, better of two orientations"},
      {"binder": "B31", "binding signal": "6.22 ln median PBM intensity, better of two orientations"},
      {"binder": "B4", "binding signal": "11.1 ln median PBM intensity, better of two orientations"},
      {"binder": "B32", "binding signal": "6.34 ln median PBM intensity, better of two orientations"}
    ]}
  ]
}
